From patent US8257949B2, “Self-priming polysialyltransferase” (National Research Council of Canada, priority 2006, dated 2012) come the findings set out here.

Holding throughout (assay type): biochemical
A short description of data set [1]: Activity of self-priming poly-sialyltransferase proteins in E. coli supernatant or pellet, CE assay. Details: Specific Activity: unit not given here. To be noted: for Activity / Specific Activity: 24 hour sample; for Percent GM3: FCHASE-GM3 found in the product. The method, then: The self-priming poly-sialyltransferase proteins were expressed in E. coli cells and growth conditions for optimal protein expression were determined. Similar results were obtained for all three fusions; therefore, results are shown only for the PST-17 fusion. Cells were grown at 20° C., 25° C. and 30° C. for four different time periods. Aliquots of 1.5 mL were harvested, sonicated, and then centrifuged at 10,000×g for 10 mm. Expression of the self-priming poly-sialytransferase proteins increased with time at all […] temperatures.
Enzymatic activities of the self-priming poly-sialytransferase proteins were confirmed. Only the 24 hour samples of FIG. 4 were assayed Assays were done using the following reaction mixture: 0.5 mM FCHASE-Lac, 50 mM NaHEPES pH 7.5, 10 mM MgCl2, 5 mM CMP-NeuAc and 50% volume bacterial supernatant or pellet Reactions were incubated at 37° C. for 10 min and analyzed by capillary electrophoresis. […] For example, in the PST-17 20° C. supernatant, 9% of the substrate is converted into product, but most product is FCHASE-GM3. In contrast, in the PST-21 20° C. supernatant, 7% of the substrate is converted into product with 68% FCHASE-GM3, the remaining products containing longer sialic acid polymers. […] The highest levels of activity are shown in bold font.

Data set [2] in a line: Poly-sialylation of glycopeptide acceptor by PST17, TLC and CE analysis. As to the method: The control reaction lacked CMP-sialic acid. […] Disialylated products and products with more than 45 sialic acid residues are indicated with arrows.
The poly-sialyltransferase of PST17 was tested using a partially glycosylated IFNα2b[GalNAc-Gal-NeuAc]-FCHASE glycopeptide. Assay conditions were as follows: 50 mM NaHEPES pH 7.5, 5 mM MnCl2, 5 mM MgCl2, 5 mM CMP-NeuAc, 0.0684 mM IFNα2b[GalNAc-Gal-NeuAc]-FCHASE glycopeptide. Reactions were incubated at 37° C. for 1 hour and 2 hours. […] After 1 hour incubation at 37° C. there is 49.9% conversion to sialylated product and after 2 hours there is 62.5% conversion to sialylated product. […] A glycopeptide acceptor was also a very good acceptor for the PST-17 fusion protein, and long PSA polymers could be seen in CE analysis of those reactions. (Data not shown.) The glyco-peptide acceptors, NH2-VGVT[GalNAc-α-]ETP-COOH (SEQ ID NO:32), were obtained from Sussex Research Laboratories (Ottawa, Canada) and then N-terminally labelled with FCHASE as described for the amino-phenyl glycosides.

Data set [3] in a line: PST-17 time course on disaccharide acceptor. To be noted: single addition of enzyme, fixed donor concentration. The method, then:
A comparison of acceptors substrates was performed using Lactose, N-acetyllactosamine, and Gal-β-1,3-GalNAc-α (T-Ag) disaccharide acceptors. […] See, e.g., FIG. 7.

A short description of data set [4]: Comparison of PST-16 and PST-17 sialic acid polymerization, CE analysis. To be noted: for formation of long sialic acid polymers: CE analysis; for amount of polysialic acid relative to all other sialylated species: Lac-FCHASE acceptor, FIG. 5. An excerpt:
The dotted line represents PST-16; the solid line represents PST-17. Arrows indicate the positions of Lactose (lac), GD3, GQ4, and polysialylated products conjugated to more than four sialic acid residues. The amount of polysialic acid relative to all other sialylated species ([…] sialic acid moieties) is about 50% in for each reaction.
Sialylation of the starting material: (▪), +1 NeuAc; ( ? ), +2 NeuAc; (□), +3 NeuAc; ( ? ), 4 NeuAc; ( ? ), >4 NeuAc (▪). 6A is PST-16 with Lac-FCHASE substrate. 6B is PST-17 with Lac-FCHASE substrate. 6C is PST-16 with T-Ag-FCHASE substrate. 6D is PST-17 with T-Ag-FCHASE substrate.
A fusion of Cst-II from C. jejuni OH4384 and the E. coli PST protein (PST-16) was generated and compared to the and N. meningitidis fusion (PST-17). Enzymatic activities of the two fusion proteins were determined and compared. […] See, e.g., FIGS. 5 and 6.

The nature of data set [5]: Polysialic acid synthesis, fusion protein versus mixture of unfused parent enzymes. To be noted: T-Ag-containing glycopeptides. The source says:
FIG. 9 provides a comparison of polysialic acid synthesis activity using a mixture of unfused Cst-II and PST-13 enzymes or the PST-17 fusion enzyme. The sialic acid acceptor was the glycopeptide interferon α2b-[TAg]-FCHASE. FIG. 9A is the unfused enzyme mixture: CST-81 and PST-13. FIG. 9B is the PST-17 fusion enzyme. Figure legend: IFNα2b-[TAg]-FCHASE (Starting material) (▪); +1 NeuAc ( ? ); +2 NeuAc (□); +3 NeuAc ( ? ); +4 NeuAc ( ? ); >4 NeuAc (▪).
In order to evaluate whether the fusion protein functions more efficiency than the unfused parent enzymes mixed together, we performed experiments where we controlled the stoichiometry of the individual sialyltransferases. The stoichiometry of the mixtures was calculated using gel densitometry. Care was taken not to overload the gels so that the protein bands were not saturated. Gels were stained with SYPRO Orange and protein was quantitated with software provided with Imager system. Reactions contained 4 μM enzyme based on the percentage present in the separate preparations.
See, e.g., FIG. 9. Although less striking, similar results were obtained using a mono-sialylated T-Ag-glycopeptide (S-T-Ag-glycopeptide) acceptor also. See, e.g., FIG. 10.

B1: PST-17: truncated CstII from OH4384 fused to the Neisseria Pst, SEQ ID NO:2 (protein)
chain: MKKVIIAGNGPSLKEIDYSRLPNDFDVFRCNQFYFEDKYYLGKKCKAVFYNPSLFFEQYYTLKHLIQNQEYETELIMCSNYNQAHLENENFVKTFYDYFPDAHLGYDFFKQLKDFNAYFKFHEIYFNQRITSGVYMCAVAIALGYKEIYLSGIDFYQNGSSYAFDTKQKNLLKLAPNFKNDNSHYIGHSKNTDIKALEFLEKTYKIKLYCLCPNSLLANFIELAPNLNSNFIIQEKNNYTKDILIPSSEAYGKFSKNINFGGGHMLKKIKKALFQPKKFFQDSMWLTTSPFYLTPPRNNLFVISNLGQLNQVQSLIKIQKLTNNLLVILYTSKNLKMPKLVHQSANKNLFESIYLFELPRSPNNITPKKLLYIYRSYKKILNIIQPAHLYMLSFTGHYSYLISIAKKKNITTHLIDEGTGTYAPLLESFSYHPTKLERNLIGNNLNIKGYIDHFDILHVPFPEYAKKIFNAKKYNRFFAHAGGISINNNIANLQKKYQISKNDYIFVSQRYPISDDLYYKSIVEILNSISLQIKGKIFIKLHPKEMGNNYVMSLFLNMVEINPRLVVINEPPFLIEPLIYLTNPKGIIGLASSSLIYTPLLSPSTQCLSIGELIINLIQKYSMVENTEMIQEHLEIIKKFNFINILNDLNGVISNPLFKTEETFETLLKSAEFAYKSKNYFQAIFYWQLASKNNITLLGHKALWYYNALYNVKQIYKMEYSDIFYIDNISVDFHSKDKLTWEKIKHYYYFADNRIGRDR
As to B1, the “substrate converted into product” value in data set [1] (20° C. supernatant, 37° C. for 10 min) came to 9%. For the same molecule, the Activity in data set [1] (20° C., P (pellet)) was determined as 3.270 mU/mL; in data set [1] (20° C., S (supernatant)), 5.570 mU/mL; in data set [1] (25° C., P (pellet)), 9.329 mU/mL; in data set [1] (25° C., S (supernatant)), 8.192 mU/mL; in data set [1] (30° C., P (pellet)), 13.355 mU/mL; in data set [1] (30° C., S (supernatant)) it was 3.976 mU/mL. In addition, the “Specific Activity” value in data set [1] (20° C., P (pellet)) turned out to be 8.959; in data set [1] (20° C., S (supernatant)), 2.637; in data set [1] (25° C., P (pellet)) it was 11.945; in data set [1] (25° C., S (supernatant)), 3.378; in data set [1] (30° C., P (pellet)) it was 15.228; in data set [1] (30° C., S (supernatant)) it was 1.893. For the same molecule, the “Percent GM3” value worked out at 98% in data set [1] (20° C., P (pellet)); 88% in data set [1] (20° C., S (supernatant)); 59% in data set [1] (25° C., P (pellet)); 67% in data set [1] (25° C., S (supernatant)); 51% in data set [1] (30° C., P (pellet)); 58% in data set [1] (30° C., S (supernatant)). For the same molecule, the “conversion to sialylated product” value in data set [2] (1 hour incubation at 37° C.) came out at 49.9%; in data set [2] (2 hours at 37° C.), 62.5%. Further, the “sialic acid residues on products” value in data set [2] (CE analysis, FIG. 8) is on record as “more than 45”. In data set [3], the Lac-FCHASE consumed result is recorded as “essentially all”. The molecule also showed a T-Ag material consumed in data set [3] of 72%. In addition, the “formation of long sialic acid polymers” value in data set [4] was “formation of long polymers happens from the earliest time points”. Besides, the “amount of polysialic acid relative to all other sialylated species” value in data set [4] was “about 50%”. Moreover, the “polysialic acid product relative to the combination of unfused parent enzymes” value in data set [5] is listed as “four times as much”. Moreover, the “polysialic acid product (PSA)” value in data set [5] (4 μM enzyme) is listed as 17%.

B2: PST-16: fusion of Cst-II from C. jejuni OH4384 and the E. coli PST protein, SEQ ID NO: 15 (protein)
chain: MKKVIIAGNGPSLKEIDYSRLPNDFDVFRCNQFYFEDKYYLGKKCKAVFYNPSLFFEQYYTLKHLIQNQEYETELIMCSNYNQAHLENENFVKTFYDYFPDAHLGYDFFKQLKDFNAYFKFHEIYFNQRITSGVYMCAVAIALGYKEIYLSGIDFYQNGSSYAFDTKQKNLLKLAPNFKNDNSHYIGHSKNTDIKALEFLEKTYKIKLYCLCPNSLLANFIELAPNLNSNFIIQEKNNYTKDILIPSSEAYGKFSKNINFGGGHMIFDASLKKLRKLFVNPIGFFRDSWFFNSKNKAEELLSPLKIKSKNIFIISNLGQLKKAESFVQKFSKRSNYLIVLATEKNTEMPKIIVEQINNKLFSSYKVLFIPTFPNVFSLKKVIWFYNVYNYLVLNSKAKDAYFMSYAQHYAIFVYLFKKNNIRCSLIEEGTGTYKTEKENPVVNINFYSEIINSIILFHYPDLKFENVYGTYPILLKKKFNAQKFVEFKGAPSVKSSTRIDNVIHKYSITRDDIIYANQKYLIEHTLFADSLISILLRIDKPDNARIFIKPHPKEPKKNINAIQKAIKKAKCRDIILITEPDFLIEPVIKKAKIKHLIGLTSSSLVYAPLVSKRCQSYSIAPLMIKLCDNDKSQKGINTLRLHFDILKNFDNVKILSDDITSPSLHDKRIFLGE
On to B2, for which, in data set [4], the “consumption of the acceptor” value is reported as “consumed completely”, the “formation of long sialic acid polymers” value is on record as “did not detect formation of long sialic acid polymers” and the “amount of polysialic acid relative to all other sialylated species” value is recorded as “about 50%”.
